The source of these data is FireProtDB (doi:10.1021/bi00485a005).

To fix the notation:
B1: Guanyl-specific ribonuclease T1, P00651 (parent)
chain: MMYSKLLTLTTLLLPTALALPSLVERACDYTCGSNCYSSSDVSTAQAAGYQLHEDGETVGSNSYPHKYNNYEGFDFSVSSPYYEWPILSSGDVYSGGSPGADRVVFNENNQLAGVITHTGASGNNFVECT

Variants of B1 are the subject of the first data set. The conditions noted are these: Aspergillus oryzae (strain ATCC 42149 / RIB 40); pH 6.01; 25 °C; Urea; Fluorescence; MES 30 mM; NaCl 0.2 M; structure 1RN1; whole UniProt chain shown.
Consider E84A, for which the “ddG of mutation (higher = less stable)” value was determined as 2.68 kJ/mol, the denaturant m value came out at 1.34 kcal/mol/M, the “denaturant midpoint (higher = more stable)” value came out at 5.67 M and the unfolding free energy came out at 31.8 kJ/mol.

Staying with this data set, now noted: Aspergillus oryzae (strain ATCC 42149 / RIB 40); pH 8.01; 25 °C; Urea; Fluorescence; HEPPSO 30 mM; NaCl 0.2 mM; structure 1RN1; whole UniProt chain shown.
In the case of E84A, the “ddG of mutation (higher = less stable)” value is -2.97 kJ/mol, the denaturant m value was 1.36 kcal/mol/M, the “denaturant midpoint (higher = more stable)” value stood at 4.89 M and the unfolding free energy was 27.7 kJ/mol.
